Test results published in US20180291096A1 (Janssen / Centocor, published 2018).
Positions count from the first letter of the chain named.

Assays:
[1] = molecular target: T1, recombinant human IL-23 (hrIL-23), produced at Centocor (human, UniProt P29460 23-328); test: cell-based or functional assay
T1 sequence 1: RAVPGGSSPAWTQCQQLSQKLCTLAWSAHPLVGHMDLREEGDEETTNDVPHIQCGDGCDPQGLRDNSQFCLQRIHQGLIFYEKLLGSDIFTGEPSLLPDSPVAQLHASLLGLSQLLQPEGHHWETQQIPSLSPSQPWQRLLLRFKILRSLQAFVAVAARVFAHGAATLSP
T1 sequence 2: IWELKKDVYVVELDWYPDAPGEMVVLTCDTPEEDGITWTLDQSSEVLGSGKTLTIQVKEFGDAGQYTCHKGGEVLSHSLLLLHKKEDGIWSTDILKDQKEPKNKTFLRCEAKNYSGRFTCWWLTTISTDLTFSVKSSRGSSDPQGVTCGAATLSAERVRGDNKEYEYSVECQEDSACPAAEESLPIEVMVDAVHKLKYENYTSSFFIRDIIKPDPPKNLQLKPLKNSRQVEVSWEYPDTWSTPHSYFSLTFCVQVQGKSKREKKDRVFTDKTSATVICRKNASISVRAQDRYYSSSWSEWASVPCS

[2] = molecular target: T1, recombinant human IL-23 (hrIL-23), …; test: SET
[3] = molecular target: T1, recombinant human IL-23 (hrIL-23), …; test: IL-23/IL-23R competition assay

B1: MOR05051 mAb (antibody, human IgG1, V domains shown)
VH: QVELVESGGGLVQPGGSLRLSCAASGFTFSSFGMSWVRQAPGKGLEWVSQIEHKYLSYTTLYAASVKGRFTISRDNSKNTLYLQMNSLRAEDTAVYYCARYWGTPYLMQFDNWGQGTLVTVSS
VL: DIALTQPASVSGSPGQSITISCTGTSSDVGGYNSVSWYQQHPGKAPKLMIYSVSSRPSGVSNRFSGSKSGNTASLTISGLQAEDEADYYCSSYDTNKPLVVFGGGTKLTVL
Q: With B1 as the binder, how does the “IC50, inhibition of IL-17 production” value [1] read?
A: 0.0663 µg/mL

B2: MOR05056 mAb (antibody, human IgG1, V domains shown)
VH: B1 VH with Q50S, T59A, L61Y, S65G
VL: B1 VL
Q: How did the “IC50, inhibition of IL-17 production” value [1] turn out when B2 was run?
A: 0.092 µg/mL

B3: MOR05039 mAb (antibody, human IgG1, V domains shown)
VH: B1 VH with Q50N, S57N, T59A, L61Y
VL: B1 VL
Q: How did the “IC50, inhibition of IL-17 production” value [1] turn out when B3 was run?
A: 0.161 µg/mL

B4: MOR05055 mAb (antibody, human IgG1, V domains shown)
VH: B1 VH with Q50N, S57G, T59A, L61V
VL: B1 VL
Q: For B4, which “IC50, inhibition of IL-17 production” value [1] is on record?
A: 0.0916 µg/mL

B5: MOR05063 mAb (antibody, human IgG1, V domains shown)
VH: QVELVESGGGLVQPGGSLRLSCAASGFTFSSFGMSWVRQAPGKGLEWVSNISSSGSSTYYADSVKGRFTISRDNSKNTLYLQMNSLRAEDTAVYYCARYWGTPYLMQFDNWGQGTLVTVSS
VL: B1 VL with S91G, Y93W, T95P, N96I, K97F, P98S, L99Y, V100E
Q: With B5 as the binder, how does the “IC50, inhibition of IL-17 production” value [1] read?
A: 0.198 µg/mL

B6: MOR05062 mAb (antibody, human IgG1, V domains shown)
VH: B5 VH
VL: B1 VL with S91Q, S92T, D94Y, T95F, N96S, K97Y, P98S, L99G, V100P
Q: With B6 as the binder, how does the “IC50, inhibition of IL-17 production” value [1] read?
A: 0.199 µg/mL

B7: MOR05061 mAb (antibody, human IgG1, V domains shown)
VH: B5 VH
VL: B1 VL with D94Y, T95F, N96Y, K97L, P98Q, L99R, V100I
Q: For B7, which “IC50, inhibition of IL-17 production” value [1] is on record?
A: 0.309 µg/mL

B8: MOR04658 mAb (antibody, human IgG1, V domains shown)
VH: B5 VH
VL: B1 VL
Q: How did the “IC50, inhibition of IL-17 production” value [1] turn out when B8 was run?
A: 1.96 µg/mL

B9: MOR05034 Fab (Fab, V domains shown)
VH: QVQLVQSGAEVKKPGSSVKVSCKASGGTFSSNYISWVRQAPGQGLEWMGLIDPNFGGAYYAQKFQGRVTITADESTSTAYMELSSLRSEDTAVYYCARSKKGMYGGWTYPLMMFDLWGQGTLVTVSS
VL: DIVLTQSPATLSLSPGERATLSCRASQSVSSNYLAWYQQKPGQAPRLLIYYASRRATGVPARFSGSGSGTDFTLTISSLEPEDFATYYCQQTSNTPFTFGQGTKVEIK
notes: Fab
Q: What does the source list for B9?
A: Kd [2]: 0.126 nM; IC50 [3]: 0.4 nM

B10: MOR05034 mAb (antibody, human IgG1, V domains shown)
VH: B9 VH with Q3E
VL: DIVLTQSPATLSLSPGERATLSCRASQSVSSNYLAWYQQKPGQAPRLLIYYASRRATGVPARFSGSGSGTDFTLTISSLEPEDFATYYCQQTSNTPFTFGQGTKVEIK
Q: How did the “IC50, inhibition of IL-17 production” value [1] turn out when B10 was run?
A: 0.185 µg/mL

B11: MOR05031 mAb (antibody, human IgG1, V domains shown)
VH: B9 VH with Q3E, L50G, D52I, N54I, G57H, Y59N
VL: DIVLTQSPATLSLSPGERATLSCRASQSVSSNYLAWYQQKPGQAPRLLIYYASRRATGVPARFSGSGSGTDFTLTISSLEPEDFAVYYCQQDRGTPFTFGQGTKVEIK
Q: For B11, which “IC50, inhibition of IL-17 production” value [1] is on record?
A: 0.215 µg/mL

B12: MOR05029 mAb (antibody, human IgG1, V domains shown)
VH: B9 VH with Q3E, L50G, D52I, N54I, G57H, Y59N
VL: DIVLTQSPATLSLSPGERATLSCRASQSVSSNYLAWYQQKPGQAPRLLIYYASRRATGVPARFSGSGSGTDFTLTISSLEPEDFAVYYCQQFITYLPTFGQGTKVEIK
Q: For B12, which “IC50, inhibition of IL-17 production” value [1] is on record?
A: 0.0491 µg/mL

B13: MOR05030 mAb (antibody, human IgG1, V domains shown)
VH: B9 VH with Q3E, L50G, D52I, N54I, G57H, Y59N
VL: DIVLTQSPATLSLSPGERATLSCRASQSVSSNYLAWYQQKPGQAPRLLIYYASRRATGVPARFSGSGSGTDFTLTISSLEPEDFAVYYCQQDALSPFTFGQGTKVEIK
Q: For B13, which “IC50, inhibition of IL-17 production” value [1] is on record?
A: 0.0646 µg/mL

B14: MOR05032 mAb (antibody, human IgG1, V domains shown)
VH: B9 VH with Q3E, L50G, D52I, N54I, G57H, Y59N
VL: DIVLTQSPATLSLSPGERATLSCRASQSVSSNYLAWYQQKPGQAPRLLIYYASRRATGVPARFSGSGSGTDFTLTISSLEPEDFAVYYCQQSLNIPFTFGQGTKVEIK
Q: With B14 as the binder, how does the “IC50, inhibition of IL-17 production” value [1] read?
A: 0.172 µg/mL

B15: MOR05037 mAb (antibody, human IgG1, V domains shown)
VH: B9 VH with Q3E, N54M
VL: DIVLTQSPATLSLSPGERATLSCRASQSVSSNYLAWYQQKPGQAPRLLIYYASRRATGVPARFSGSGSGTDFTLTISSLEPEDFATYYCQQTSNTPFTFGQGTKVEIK
Q: How did the “IC50, inhibition of IL-17 production” value [1] turn out when B15 was run?
A: 0.336 µg/mL

B16: MOR05036 mAb (antibody, human IgG1, V domains shown)
VH: B9 VH with Q3E, N54V
VL: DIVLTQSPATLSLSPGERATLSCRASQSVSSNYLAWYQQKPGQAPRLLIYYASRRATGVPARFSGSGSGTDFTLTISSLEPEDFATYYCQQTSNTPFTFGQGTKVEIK
Q: Which “IC50, inhibition of IL-17 production” value [1] does the source give for B16 here?
A: 0.17 µg/mL

B17: MOR05033 mAb (antibody, human IgG1, V domains shown)
VH: B9 VH with Q3E, L50I, D52I, N54P, F55I, G57N, Y59W
VL: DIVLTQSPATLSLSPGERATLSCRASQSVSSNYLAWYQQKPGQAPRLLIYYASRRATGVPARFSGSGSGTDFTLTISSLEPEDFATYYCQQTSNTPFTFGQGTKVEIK
Q: B17 was tested. Which “IC50, inhibition of IL-17 production” value [1] did it give?
A: 0.283 µg/mL

B18: MOR05036 Fab (Fab, V domains shown)
VH: B9 VH with N54V
VL: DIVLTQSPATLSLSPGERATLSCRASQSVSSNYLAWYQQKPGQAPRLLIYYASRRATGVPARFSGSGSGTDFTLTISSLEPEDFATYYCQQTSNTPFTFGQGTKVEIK
notes: Fab
Q: What does the source list for B18?
A: Kd [2]: 0.032 nM; IC50 [3]: 0.32 nM

B19: MOR05041 Fab (Fab, V domains shown)
VH: QVQLVQSGAEVKKPGESLKISCKGSGYSFSNYWIGWVRQMPGKGLEWMGIISPTGSVTWYSPSFQGQVTISADKSISTAYLQWSSLKASDTAMYYCARWYYKPFDVWGQGTLVTVSS
VL: DIVLTQPPSVSGAPGQRVTISCTGSSSNIGSGYDVHWYQQLPGTAPKLLIYGNSKRPSGVPDRFSGSKSGTSASLAITGLQSEDEADYYCSSWTPSSVVFGGGTKLTVL
notes: Fab
Q: For B19, which Kd [2] is on record?
A: 0.041 nM

Q: What about the IC50 [3] of the same binder?
A: 0.07 nM

B20: MOR05046 mAb (antibody, human IgG1, V domains shown)
VH: B19 VH with Q3E, S52D, T54V, G55S, V57W, W59K
VL: B19 VL
Q: With B20 as the binder, how does the “IC50, inhibition of IL-17 production” value [1] read?
A: 0.0428 µg/mL

B21: MOR05046 Fab (Fab, V domains shown)
VH: B19 VH with S52D, T54V, G55S, V57W, W59K
VL: B19 VL
notes: Fab
Q: With B21 as the binder, how does the Kd [2] read?
A: 0.023 nM

Q: What about the IC50 [3] of the same binder?
A: 0.08 nM

B22: MOR05043 Fab (Fab, V domains shown)
VH: B19 VH with I50F, T54D, V57H
VL: B19 VL
notes: Fab
Q: B22 was tested. Which Kd [2] did it give?
A: 0.018 nM

Q: And the IC50 [3]?
A: 0.05 nM

B23: MOR05044 Fab (Fab, V domains shown)
VH: B19 VH with T54S, V57T
VL: B19 VL
notes: Fab
Q: Which results are given for B23?
A: Kd [2]: 0.043 nM; IC50 [3]: 0.05 nM

B24: MOR05038 mAb (antibody, human IgG1, V domains shown)
VH: QVELVQSGAEVKKPGSSVKVSCKASGGTFSSNYISWVRQAPGQGLEWMGINAHLGGTWYAQKFQGRVTITADESTSTAYMELSSLRSEDTAVYYCARSKKGMYGGWTYPLMMFDLWGQGTLVTVSS
VL: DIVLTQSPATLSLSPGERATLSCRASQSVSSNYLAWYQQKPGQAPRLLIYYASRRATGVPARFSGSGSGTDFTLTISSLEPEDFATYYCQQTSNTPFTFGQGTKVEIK
Q: For B24, which “IC50, inhibition of IL-17 production” value [1] is on record?
A: 0.0282 µg/mL

B25: MOR05028 mAb (antibody, human IgG1, V domains shown)
VH: QVELVQSGAEVKKPGSSVKVSCKASGGTFSNYAISWVRQAPGQGLEWMGGIIPVFGFTHYAQKFQGRVTITADESTSTAYMELSSLRSEDTAVYYCARDIYAGMDVWGQGTLVTVSS
VL: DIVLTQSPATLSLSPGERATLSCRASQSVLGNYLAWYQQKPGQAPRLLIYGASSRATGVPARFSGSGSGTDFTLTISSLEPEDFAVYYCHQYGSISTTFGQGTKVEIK
Q: B25 was tested. Which “IC50, inhibition of IL-17 production” value [1] did it give?
A: 0.104 µg/mL

B26: MOR05268 Fab (Fab, V domains shown)
VH: B25 VH with E3Q, V54M, F57Y, T58A, H59N
VL: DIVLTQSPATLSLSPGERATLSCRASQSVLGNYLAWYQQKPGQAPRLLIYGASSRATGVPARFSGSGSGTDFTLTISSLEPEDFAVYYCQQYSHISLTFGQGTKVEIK
notes: Fab
Q: Which results are given for B26?
A: Kd [2]: 0.66 nM; IC50 [3]: 0.15 nM

B27: MOR05267 Fab (Fab, V domains shown)
VH: B25 VH with E3Q, V54M, F57Y, T58A, H59N
VL: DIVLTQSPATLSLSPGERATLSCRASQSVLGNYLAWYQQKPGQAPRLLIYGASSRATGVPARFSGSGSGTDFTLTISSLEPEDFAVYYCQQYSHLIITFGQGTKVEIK
notes: Fab
Q: With B27 as the binder, how does the Kd [2] read?
A: 2 nM

Q: What about the IC50 [3] of the same binder?
A: 0.14 nM

B28: MOR05269 Fab (Fab, V domains shown)
VH: B25 VH with E3Q, V54M, F57Y, T58A, H59N
VL: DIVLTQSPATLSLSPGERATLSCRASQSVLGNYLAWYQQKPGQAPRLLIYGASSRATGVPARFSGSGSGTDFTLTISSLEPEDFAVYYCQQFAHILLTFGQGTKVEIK
notes: Fab
Q: B28 was tested. Which Kd [2] did it give?
A: 0.96 nM

Q: And the IC50 [3]?
A: 0.2 nM
